Experiment: soluble on expression in E. coli; label from the status in PepcDB or PDB records

Row | Sequence | soluble on expression in E. coli
1 | MSAPFEERSGVVPCGTPWGQWYQTLEEVFIEVQVPPGTRAQDIQCGLQSRHVALAVGGREILKGKLFDSTIADEGTWTLEDRKMVRIVLTKTKRDAANCWTSLLESEYAADPWVQDQMQRKLTLERFQKENPGFDFSGAEISGNYTKGGPDFSNLEK | soluble
2 | MGHHHHHHSHMEQFEVIKQQKEIIEHGIELFNKKPKRGIQFLQEQGMLGTSVEDIAQFLHQEERLDSTQVGDFLGDSARFNKEVMYAYVDQLDFCEKEFVSALRTFLEGFRLPGEAQKIDRLMEKFAARYIECNQGQTLFASADTAYVLAYSIIMLTTDLHSPQVKNKMTKEQYIKMNRGINDSKDLPEEYLSSIYEEIEGKKIAMKETKELT | soluble
3 | ENLGATVIPASTGNTEKHVRLIRDLGITGIACTPSYALYLAEVVERMGLTKNDINLRIGAFGAEPWTESMRKEIEERLGLKGYNIYGLSEIMGPGVSYECQEQH | not soluble
4 | MSLEARGLNVTIMKLDPYINVDPGTMSPTQHGEVFVTQDGAETDLDLGHYERFIRTKMTKRNNFTTGKIYSEVLRKERRGDYLGATIQVIPHITNEIKDRVIAGAQGHDVVIVEVGGTVGDIESLPFLEALRQLAVQVGREHTLFMHLTLVPYIPTAGEVKTKPTQHSVKELLSIGIQPDVLICRSDRMIPPNERAKIALFCNVAERAVISLKDVNSIYQIPALLKSQGLDDFVCERFRLTCPEADLTEWEQVLYKQANPVGEVTIGMVGKYTELPDAYKSVNEALKHAGLTNRLSVNIKYIDSQDVETKGVEVLKGIDGILVPGGFGYRGVEGKIRTAQYARENKIPYLGICLGMQIALIEYARNVAGLTKANSSEFDKDCEQPVVALITEWQDAEGNTEVRTDESDLGGTMRLGAQQCHLVSGSRARELYGKETIEERHRHRYEVNNTLLPQIEKAGLKVTGLSADKKLVEIIEVPNHPWFVACQFHPEFTSTPRDGHPLFAGFVKAAYENHKKSVKEGHHHHHH | not soluble
5 | MSFVSVLSIAHKKGRGWPLLDMEIRELCCMLHKVFYLVRCTGIGFDFFRKFVLILFLAYTFKTIDSMASERKLKKQITGAISEVFTDAFLLKLFVKEEKNAEVETILNRILQLQDTTIAKIRCNDGKHNPALVKKYYRRLVDDFKEELSEIVKSISACASDN | not soluble
6 | MAHHHHHHMTLETTPAPTFSSKKELYDWLVKQVEALVHDMSKRFTPQANLVIGLSNTAALCFYELNRFCNPEAALEKLRVNWFGFYLFQAPGLLALGPFQGRPACTEIRVGKGVCGTVAESGESMVVQSVHEFPGHIACDSASKSEIAVPVLIENGSVVAVIDVDSTELGHFSEEDREGLERMAAVLAQHLDFPMARALAVNPALGLPGYSALAGGEKALQPHGDAEAVPQATPVTTTTTTPATVTAVTRIPFFKVEVKQPDVTTKCVGGWQFTRTNLDRIMTQDETKQLQDSLGISALPEIAFQGKTLSVSPESDREHPWLHFSVEALMCSAAEYYQTEEFKTLVNPQLRIPVSAGWESFHFEKYDPKVDWAWRNNFCGLVPDRGRLVERPRDAADAPGINWDILKDTSLLILFYGDFDMMEDDLRDHGMVTSSVKYRVMSSAFFVLFRHFVRVDNHEIWMREVRVFHEFGKTRTPSGVPHIVFLEQLRHVRIAEPVEGVDWKSMSPDAISAKATVLLSREWMLEKVATA | not soluble
7 | MIKNPILRGFNPDPSICRADTDYYIATSTFEWFPGVQIHHSKDLVNWHLVAHPLNRTSLLDMKGNPNSGGIWAPDLSYHDGKFWLIYTDVKVTDGMWKDCHNYLTTCESVDGVWSDPITLNGSGFDASLFHDNDGKKYLVNMYWDQRTYNHNFYGIVLQEYSDKEKKLIGKAKIIYKGTDIKYTEGPHIYHIGDYYYLFTAEGGTTYEHSETVARSKNIDGPYEIDPEYPLLTSWHDPRNSLQKCGHASLVHTHTDEWYLAHLVGRPLPVGNQPVLEQRGYCPLGRETSIQRIEWVDNWPRVVGGKQGSVNVEAPKIPEVKWEKTYDEKDNFDSDKLNINFQSLRIPLTENIASLKAKKGNLRLYGKESLTSTFTQAFIARRWQSFKFDASTSVSFSPDTFQQAAGLTCYYNTENWSTIQVTWNEDKGRVIDIVCCDNFHFDMPLKSNVIPIPKDVEYIHLKVEVRVETYQYSYSFDGINWSKVPAIFESRKLSDDYVQGGGFFTGAFVGINCIDITGNNKPADFDYFCYKEL | soluble
8 | GYKKIPKKKLKDLMVELYVADGHFANIYDPKLTDSVREAVYTNLFAKYGTTRMDYDSTLMWYGRHDLEEYIAICQSVRDELEKQRIDLDKQITLEREKKGMDMLDGSFYELDSINMLAGDSTCFYRPEMPFLNRSFIITPGTAYKEGTRLEFVTRLRGLQLRPDATMEMFLQLVCTDNTVLTVSRPVNPGINMLTTSVPDSASVSRVYGYLRGFPDSAGIMSLSPFVIDSFSLRKF | not soluble
9 | MMPRMGPPAAARQDNPLHVSFRNPQWPPNFINKDNVLDYFCNQANAFYEMNSCNQQIRMQNIVNRTVEECLRTMPGIQYVLWYSQPPLFIICKQRRNNVTNVSPIAYYYVINGSVHQAPDMYSLVQSRLLGALEPLRNAFGEVTNYSRYNTAKGYYWEFKNKPNVKKREEEKKEDEEEKLEDRSTNFQKTRTMMLLNQLFSEMPAEDALEREEKEEVEEEEEETLKTEEPTTSTDEPKFAEPTARTTSKQ | not soluble
10 | MLEFFDEDFDNMALVEGALELNKSVNPETNVHWAKQELERLYQEAEATLIHETDEEQRFDSFLRLFFHEWGFKGDDQEYFISDNSFIDKVLERKKGIPVSLGAILLYLGNRLGFPMKGVTFPTQFLIKVDWMHKTPDYINPFNGEYVGEKILQAWLIGQEGPLAQLKPEHFDEADNPTVIGRWLALIKSAMLREERYTLALRCTNLALTFVPDDPYEIRDRGFIFQQLECHQVAVSDFQYFIDQCPDDPASELLKSQVNAMSEKHVTLHLEHHHHHH | soluble
11 | MKRKTIDIITLGCSKNLVDSEQLMRQLEEAGYDVTHDSEKPTGEIAVINTCGFIGDAKEESINMILEFAQEKEEGNLEKLFVMGCLSERYLKELAIEIPQVDKFYGKFNWKGLLQDLGKAYHEELHIERTLTTPKHYAYLKISEGCDRKCSYCAIPIITGRHVSRPIEEILDEVRYLVSNGVKEFQVIAQELTYYGVDLYKKQMLPELIERISEIPGVEWIRLHYAYPAHFPEELFRVMRERDNVCKYMDIALQHISDNMLQRMRRHVTKKETYRLIEQFRKEVPGIHLRTTLMVGHPGETEGDFEELKEFVRKVRFDRMGAFTYSEEEGTYAAANYEDSIPQELKQARLDELMAIQQGISTELSASKVGQKMKVIIDRIEGEYYIGRTEFDSPEVDPEVLIRCEGDNLMIGNFYQVQVIDSDEFDLFGEIILEHHHHHH | soluble
12 | MAHHHHHHMGTLEAQTQGPGSMLTYFHPDQSLHHPRTYFSRGRMRMPQEVPERAARLVAAAFAMGFPVREPDDFGIAPIAAVHDTHYLRFLETVHREWKAMPEDWGDEAMSNIFVREPNALRGVLAQAARHLADGSCPVGEHTWRAAYWSAQSALAAAAAVRDGAPAAYALCRPPGHHARVDAAGGFCYLNNAAIAAQALRARHARVAVLDTDMHHGQGIQEIFYARRDVLYVSIHGDPTNFYPAVAGFDDERGAGEGLGYNVNLPMPHGSSEAAFFERVDDALRELRRFAPDALVLSLGFDVYRDDPQSQVAVTTDGFGRLGHLIGALRLPTVIVQEGGYHIESLEANARSFFGGFGALRG | soluble
13 | MLSVFPLAGMSLASLHYSTHRVDQTQVYMVAAPMADYRVVMTEPAASGQDTYLETTAAFARRTGAVAAMNTNFFRWLNAQSLRSFQDYQKWIMGESNPEGISYRALRQTCLSGRGTIPAGVAGAYIVNGRVVRPYEGGYSGIVNFPAQGGIEFYRGRLPEQPFNVVSGSQQLLDGGRKLPVDGSDRTSPKAILGRRGNEYVFVVSDGRGNGGSPGLSFLQLQDFLLQQGVTEATAMDGGESATLVVEGQVKNHPRDRYCELARWLPAPALTLINLEEEAQETAMAMGRSLRPVGANIGLVPRHRPPAFLSFAFWEFLQQRLLARLRAWRDAVLEHHHHHH | not soluble
14 | MSQLLLNLEGKTKIKAIARKNDLCERKSSNLHHFCVEFHNNYEFLEIGLSEARSLASISDKNVLNSNRKAENYQKKWKNFEKESILKLNSIMEKISSHSQPSHHHTNASITLPYDATIQKIAEKEKNLSKLLKELSIVDSSLKEEKASFEKTQSALLKEKGKIEKDKLMLREEAQKQASMNAEVQKKELESQERLSVLNKQFMEENEKKVKLEQEELDSKNAYNDCLQLNIPNAESQMITDQLATLDEFYSDLNNNSSNEIMAEIPDFEEIIDLFNQFKSSMESQKDILNTLAGLEEQLGDHQLEIKSVRKDINKLKGLQGKQSFYKEELKLKKSALEEIQRKIDYDQDVLNSLKVVEKAAKPDDYLRPRNSRKESVFRKLPIPERSMQHDSDTLDTRKNSKTMLKNESTRHSNPGIRLLKVPNRDSDEESENSFDDGTTQDESGVNAFFGQLSDEKEESPTAVEFSMAAHLTEFSQRQAAAAAKMNMKTPEKKVVEIESDEDDDLDSSIIAPNRAKSKDDRKSDDSDDDLNDEEGDADQSIWGSDD | not soluble
15 | MSLESILITGASGFIGSFIVEEALKRKFGVWAGIRPTSSKKYLKNRKIHFLELDFAHPNELRAQLSGHKGTYNKFDYIIHCAGVTKCPDKNTFDYVNYLQTKYFIDTLKALNMVPKQFIYISTLSVFGPVREKDYSPIEAGDVPMPNTAYGLSKLKAELYIQSIPGFPYVIYRPTGVYGPRELDYFLMAKSIRQHVDFSVGFRRQDLTFVYVKDIVQAIFLGIEKKVTRRAYFLTDGKVYNSRVFSDLIQKELGNPFVIHVKCPLIVLKVISLLAEFIATRSGKSSTLNSDKYKIMKQRNWQCDITPAINELGYAPEYDLEKGVRETIDWYKNEGWEGHHHHHH | soluble
16 | IKDFNYRIGFNLYDSQSEITKFNNETNLLGTYRKGQKIGEIWGYVTDRFYREDDFNADGTLKEGIPIPKGVGKVYPGDILYKNFDDDASTIWSGKGTADDPGDQRIIGNSTPRFHYGINAGLSWKGFDLSVFLRGVGKRDFWRTDQIAWPTGTWGSLFKETLDFWTPEHTDAYFPRVYANNGVNTASNRWKQTKYLANAAYLKLQNITLSYTLPKTWAKQICFDEVKVFFSGENLHTWDHLPEGLESDMLSKGAWEYPFMKKFSLGFNVTF | not soluble
17 | FGLETVSENELAHSEEELRIILSESYKSGEINQSEFKYVNKIFEFDDRLAKEIMIPRTEIVSLPHDIKISEMMDIIQIEKYTRYPVEEGDKDNIIGVINIKEVLTACISGEVSVDSTISQFVNPIIHVIESAPIQDLLVKMQKERVHMAILSDEYGGTAGLVTVEDIIEEIVGEIR | soluble
18 | MNDNLYSLIEQRILVLDGAMGTMIQRHGLDEQDYRGERFASHDHPLKGNNDLLVITRPDIIRSIHCDFLDAGADIIETCTFNANPISQSDYQLQDLTRELNVAAAKIARSAADEFTAKTPDKPRFVAGSIGPTNKTLSLSPDVNNPGFRAVTFQEMVDNYTAQLEGLHEGGVDLLLVETVFDTLNCKAALYAIEEYAVKTGWQVPVMVSGTVVDASGRTLSGQTTEAFWISISHMPSLLSVGLNCALGSKQMRPFIEALSNIAESYVSVYPNAGLPNEFGEYDDSPEYMAAQIAGFAESGFVNIVGGCCGTTPTHIRAIAEAVKTLPPRKRPANKHVLRLSGLEPLVVDETTGFINVGERTNVTGSRKF | not soluble
19 | MGSDKIHHHHHHMNNIIVGMGEALWDVLPEGKKIGGAPANFAYHVSQFGFDSRVVSAVGNDELGDEIMEVFKEKQLKNQIERVDYPTGTVQVTLDDEGVPCYEIKEGVAWDNIPFTDELKRLALNTRAVCFGSLAQRNEVSRATINRFLDTMPDIDGQLKIFDINLRQDFYTKEVLRESFKRCNILKINDEELVTISRMFGYPGIDLQDKCWILLAKYNLKMLILTCGINGSYVFTPGVVSFQETPKVPVADTVGAGDSFTAAFCASILNGKSVPEAHKLAVEVSAYVCTQSGAMPELPVILKDRLL | not soluble
20 | MDAHQIISFIQNSKKATPVKVYLKGDLEKIDFPSDVKTFITGNAGTIFGEWAVVEPLLEANKANIEDYVIENDRRNSAIPLLDMKNI | not soluble

— the DeepSol protein solubility set
